Assay results: PMC4349446
pKd: −log10 of the molar value.

Molecular target: Recombinant truncated LOX-1 (61–273 amino acids, extracellular domain) with a hexa-histidine tag (human) (UniProt P78380)
Assay: ELISA; human LOX-1 (1 μg/ml) coated on wells; hSAA3 peptide 10–2,000 ng/ml in PBS-0.05% Tween20–0.5% Triton X-100; retained peptide detected with monoclonal anti-hSAA3-HRP

A pKd of 7.00 was found for “hSAA3 C-terminal 26 mer synthetic peptide” in this work.
